Experimental data published in IntAct's records for PubMed 12551906.

B1: Dolichyl-phosphate-mannose--protein mannosyltransferase 1 (Saccharomyces cerevisiae), P33775 (parent)
chain: MSEEKTYKRVEQDDPVPELDIKQGPVRPFIVTDPSAELASLRTMVTLKEKLLVACLAVFTAVIRLHGLAWPDSVVFDEVHFGGFASQYIRGTYFMDVHPPLAKMLYAGVASLGGFQGDFDFENIGDSFPSTTPYVLMRFFSASLGALTVILMYMTLRYSGVRMWVALMSAICFAVENSYVTISRYILLDAPLMFFIAAAVYSFKKYEMYPANSLNAYKSLLATGIALGMASSSKWVGLFTVTWVGLLCIWRLWFMIGDLTKSSKSIFKVAFAKLAFLLGVPFALYLVFFYIHFQSLTLDGDGASFFSPEFRSTLKNNKIPQNVVADVGIGSIISLRHLSTMGGYLHSHSHNYPAGSEQQQSTLYPHMDANNDWLLELYNAPGESLTTFQNLTDGTKVRLFHTVTRCRLHSHDHKPPVSESSDWQKEVSCYGYSGFDGDANDDWVVEIDKKNSAPGVAQERVIALDTKFRLRHAMTGCYLFSHEVKLPAWGFEQQEVTCASSGRHDLTLWYVENNSNPLLPEDTKRISYKPASFISKFIESHKKMWHINKNLVEPHVYESQPTSWPFLLRGISYWGENNRNVYLLGNAIVWWAVTAFIGIFGLIVITELFSWQLGKPILKDSKVVNFHVQVIHYLLGFAVHYAPSFLMQRQMFLHHYLPAYYFGILALGHALDIIVSYVFRSKRQMGYAVVITFLAASVYFFKSFSPIIYGTPWTQELCQKSQWLSGWDYNCNTYFSSLEEYKNQTLTKRESQPAATSTVEEITIEGDGPSYEDLMNEDGKKIFKDTEGNELDPEVVKKMLEEEGANILKVEKRAVLE
partner: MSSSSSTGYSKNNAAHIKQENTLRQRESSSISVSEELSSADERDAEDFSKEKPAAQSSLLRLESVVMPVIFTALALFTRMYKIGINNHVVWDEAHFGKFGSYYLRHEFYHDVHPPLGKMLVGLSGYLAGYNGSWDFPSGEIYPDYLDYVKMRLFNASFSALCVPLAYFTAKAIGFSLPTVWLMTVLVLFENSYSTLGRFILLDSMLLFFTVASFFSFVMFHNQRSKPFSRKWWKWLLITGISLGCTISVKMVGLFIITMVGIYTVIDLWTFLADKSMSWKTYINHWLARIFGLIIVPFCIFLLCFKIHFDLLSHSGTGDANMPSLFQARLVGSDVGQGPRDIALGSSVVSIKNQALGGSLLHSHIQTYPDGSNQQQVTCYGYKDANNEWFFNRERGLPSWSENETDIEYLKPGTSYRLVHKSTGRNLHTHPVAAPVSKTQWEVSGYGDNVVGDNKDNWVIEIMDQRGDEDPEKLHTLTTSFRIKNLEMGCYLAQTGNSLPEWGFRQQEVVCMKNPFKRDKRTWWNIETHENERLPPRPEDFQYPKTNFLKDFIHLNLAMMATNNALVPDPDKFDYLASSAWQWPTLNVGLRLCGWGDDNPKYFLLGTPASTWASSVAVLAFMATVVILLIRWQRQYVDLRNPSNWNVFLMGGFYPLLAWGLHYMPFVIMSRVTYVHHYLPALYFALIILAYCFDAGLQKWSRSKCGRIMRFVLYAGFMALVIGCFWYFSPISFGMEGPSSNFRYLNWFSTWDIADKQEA

Variants of: B1
Conditions: with pmt2_yeast PMT2, P31382

effect of a mutation on the interaction | Variant
disrupting interaction strength | R138A
decreasing interaction strength | R138K
